From the supplement of paper PMC6755084

B1: minF1; a variant is named by its letters at N, in order (parent)
chain: GAGACCGCAACTGAAAAGTTGTTNNNNAANNNNGGNTNNATTTCTGCACGTAGAAGCAAAAGGC

Variants of: B1
Assay: fraction ligated after 30 min (ligated reads / total reads); higher = more ligase activity
Settings: with F1*subA RNA substrate (template-directed ligation), 42 °C
Description: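 Chip-synthesised pool of minF1 ligase ribozyme variants (single and double substitutions, single to quadruple deletions, bulge and P2 designed variants) was transcribed with T7 and reacted as a pool with excess substrate F1*subA for 30 min at 42 C in 50 mM EPPS pH 8.5, 25 mM MgCl2. Ligated and unligated RNAs were separated by PAGE, barcoded by RT and deep sequenced; fraction ligated = ligated reads / total reads, relative activity = FL / FL of wild-type minF1 (0.76); sequencing FL correlated with PAGE (R2 = 0.98). Sequences are the DNA template of the ribozyme.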

Variant | fraction ligated
TCAGATGAGTG T23A G34T | 0.00649
ACAATGAGTGA | 0.000748
TCAGATGGGTT T23A G34T T37G A40G | 0.00157
TCAAGGAGTGA | 0.000917
TCAGAGGAGTA T23A | 0.00164
TCAATGGAGTA G34T | 0.0216
TCAGAGAGTGA | 0.00182
TCAGAGGAGTT T23A G34T T37G | 0.000421
TCAGATGGTGA T23A | 0.0062
ACAGATGGGTG G34A | 0.0045
ACAGATGGGTG G34T | 0.00406
ACAAGGTGTGA A29T | 0.00256
TCAAGGAGTGA T23A A29T | 0.00288
TCAGATGGGTG | 0.005
TCAGATGGGTA | 0.000871
TCAGATGAGTG | 0.00463
TCAGATGAGTA | 0.0022
TCAGATGGGTT G34A T37G A40G | 0.00106
TCAGATGGGTT G34A G35T T37G | 0.00107
TCAGATGGGTG T23A | 0.00293
TCAATGAGTGA | 0.0012
TCAGTGATGTG | 0.00561
TCAGTGATGTA | 0.000465
TAGATGGTTGA T23A | 0.00325

Variant | fraction ligated
ACAATGTGTGA | 0.00146
ACAGTGAGTGA | 0.00274
TAGATGGATGA | 0.00101
TCAAGATGTGA | 0.00179
TCAGATGGGGT G34A G35T T37G A40T | 0.00121
TCAGATGAGTG G34T | 0.00362
ACAGTGATGTG | 0.00312
ACAGTGATGTA | 0.00194
ACAGGGATGTG A29T | 0.00794
ACAGAGGAGTT G34T T37G A40G | 0.00205
TCAGAGTGTGA T23A | 0.00281
TCAGAGGAGTA G34T | 0.00236
TCAGATATGTG | 0.00722
TCAGATATGTA | 0.00271
AAGATGGTGTG | 0.00357
AAGATGGTGTA | 0.00401
TCAGATGAGTT T23A G34T T37G | 0.00034
ACAGAGGATGA | 0.00191
TCAATATGTGA T23A | 0.00157
TCAGATATTGA | 0.00261
ACAGATGGGTT G34A T37G A40G | 0.000615
TCAAGGATGTG A29T | 0.00632
ACAGATATTGA | 0.0012
TCAGATGGGTG G34A | 0.00479

Variant | fraction ligated
TCAGATGGGTG G34T | 0.00277
ACAAGATGTGA A29G | 0.0031
ACAAGATGTGA A29T | 0.0029
TCAGAGGTGTA T23A | 0.00248
AAGATGGATGA | 0.00526
ACAATGGAGTT G34T T37G | 0.00166
AAGATGGAGTT G34T T37G | 0.00134
ACAGGGATTGA A29T | 0.00506
CAGATGTGTGA T23A | 0.00226
TCAATGGAGTA | 0.00279
TCAATGGAGTG | 0.00581
CAGATGGGTGA T23A | 0.00475
TAGATGGTGTA T23A | 0.00161
TCAAGGAGTGA A29T | 0.00143
TCAATGGTTGA T23A | 0.00285
ACAGATGATGA | 0.00115
TAGATGGTGTA | 0.00141
TAGATGGTGTG | 0.0042
TCAGTATGTGA T23A | 0.00284
ACAGAGGAGTG G34T | 0.00588
TAGATGGGTGA T23A | 0.000824
ACAAGGAGTGA A29T | 0.00407
TAGATGGAGTT G34T T37G | 0.00107
TCAGATGGGTA T23A | 0.00335

Variant | fraction ligated
TCAGGGTGTGA T23A A29T | 0.00472
TCAGAGGGTGA | 0.00299
TCAATGGATGA T23A | 0.00363
TCAGATTGTGA T23A | 0.00184
ACAGTGGAGTA G34T | 0.0155
TCAAGGATGTG T23A A29T | 0.0062
TCAATGGAGTT G34T T37G | 0.00235
TCAGATGGTGA | 0.00356
ACAGAGGAGTT G34T T37G | 0.00192
CAGATGGTTGA T23A | 0.00385
TCAATGATGTA T23A | 0.00393
ACAGATGGTGA | 0.00375
ACAGATGGGTG | 0.00567
ACAGATGGGTA | 0.00187
TCAGATGTGTG | 0.00413
TCAGATGTGTA | 0.000796
CAGATGGAGTG T23A G34T | 0.0111
ACAAGATGTGA | 0.00207
TCAGATATTGA T23A | 0.00254
TCAAGGATTGA | 0.00222
TCAATGTGTGA T23A | 0.00162
ACAAGGATGTA | 0.00108
ACAAGGATGTG | 0.00585
ACAGAGAGTGA | 0.00105

Variant | fraction ligated
TCAGAGGAGTA T23A G34T | 0.0014
TCAATGGTGTA T23A | 0.00153
ACAGAGATGTA | 0.00268
ACAGAGATGTG | 0.00764
TCAGATGATGA T23A | 0.00196
TCAGTGGAGTA G34T | 0.00892
TCAAGATGTGA T23A A29T | 0.00239
TCAAGATGTGA T23A A29G | 0.00178
ACAAGGATTGA A29T | 0.00464
ACAGATGAGTG | 0.00387
ACAGATGAGTA | 0.00413
TCAATGGGTGA T23A | 0.00158
TCAAGGTGTGA T23A | 0.00305
TCAAGGATGTA T23A | 0.000851
ACAGGGATGTG | 0.00506
ACAGGGATGTA | 0.00263
TCAAGATGTGA A28T A29G | 0.00257
AAGATGTGTGA | 0.00241
ACAGATTGTGA | 0.00539
TAGATGGGTGA | 0.00433
TCAGAGGTTGA T23A | 0.000867
TCAATGGAGTG G34T | 0.0438
TCAATGGAGTT T23A G34T T37G | 0.00105
ACAGAGGAGTA G34T | 0.000671

Variant | fraction ligated
ACAATGGAGTG G34T | 0.0274
ACAGTATGTGA | 0.00319
CAGATGGGTGA | 0.00455
TCAGGGTGTGA A29T | 0.00272
TCAATGATTGA T23A | 0.00254
TCAGATGGGTT T23A G34T T37G | 0.00101
TCAAGGATGTA T23A A29T | 0.00242
CAGATGGATGA T23A | 0.00203
ACAGATATGTA | 0.00255
ACAGATATGTG | 0.00478
ACAGGGATTGA | 0.00266
ACAGGATGTGA | 0.00342
ACAGGGAGTGA | 0.00202
ACAAGATGTGA A28T A29G | 0.00369
ACAGTGGAGTA | 0.00375
TCAATGATGTG | 0.0049
TCAATGATGTA | 0.00254
ACAGTGATTGA | 0.00326
TCAGAGGAGTT G34T T37G | 0.000958
TCAGATATGTA T23A | 0.00212
TCAGGATGTGA T23A A28T A29G | 0.00354
ACAGATGGGTA G34T | 0.00288
ACAGATGGGTA G34A | 0.00284
ACAATGGATGA | 0.00232

Variant | fraction ligated
TCAGGGAGTGA | 0.00359
TAGATGTGTGA T23A | 0.00136
ACAGATGTTGA | 0.00338
TCAGGGATGTA | 0.00309
TCAGGGATGTG | 0.00637
ACAGAGGTGTA | 0.00348
ACAGAGGTGTG | 0.00409
ACAATGATTGA | 0.00348
ACAATATGTGA | 0.00334
TCAGATGGGTA G34A | 0.00212
TCAGATGGGTA G34T | 0.00105
TCAGATGGGTT T23A G34A T37G | 0.000991
TCAGATATGTG T23A | 0.00384
TCAGAGGGTGA T23A | 0.004
ACAGATGGGTT G34T T37G | 0.0016
TCAGATTGTGA | 0.00132
CAGATGGTTGA | 0.000297
TCAGTGGAGTA | 0.00247
ACAGAGGTTGA | 0.00073
TCAAGGATGTA | 0.0017
TCAAGGATGTG | 0.00569
TCAGAGATGTG T23A | 0.00606
ACAGAGGAGTA | 0.0028
